These results are taken from patent US20120213785A1.

In assay [1] the target is human Notch3 receptor, full-length (human) (UniProt Q9UM47). The experiment in a line: FACS on 293T cells expressing Notch3 (Notch3/Hyg).
In assay [2] the target is Notch3-LD/Fc fusion protein (human Notch3 LIN12/dimerization domain fused to human gamma 1 Fc) (human) [IgG part: P01857]. The experiment in a line: ELISA, plate coated with Notch3-LD/Fc, hybridoma supernatant. For orientation: In an ELISA, binding on a coated surface is turned into a signal by an enzyme label.
Chain of Notch3-LD/Fc fusion protein (human Notch3 LIN12/dimerization domain fused to human gamma 1 Fc) (human) [IgG part: P01857] (P01857 other isoform, or with tags, fused parts or gaps limits assumed): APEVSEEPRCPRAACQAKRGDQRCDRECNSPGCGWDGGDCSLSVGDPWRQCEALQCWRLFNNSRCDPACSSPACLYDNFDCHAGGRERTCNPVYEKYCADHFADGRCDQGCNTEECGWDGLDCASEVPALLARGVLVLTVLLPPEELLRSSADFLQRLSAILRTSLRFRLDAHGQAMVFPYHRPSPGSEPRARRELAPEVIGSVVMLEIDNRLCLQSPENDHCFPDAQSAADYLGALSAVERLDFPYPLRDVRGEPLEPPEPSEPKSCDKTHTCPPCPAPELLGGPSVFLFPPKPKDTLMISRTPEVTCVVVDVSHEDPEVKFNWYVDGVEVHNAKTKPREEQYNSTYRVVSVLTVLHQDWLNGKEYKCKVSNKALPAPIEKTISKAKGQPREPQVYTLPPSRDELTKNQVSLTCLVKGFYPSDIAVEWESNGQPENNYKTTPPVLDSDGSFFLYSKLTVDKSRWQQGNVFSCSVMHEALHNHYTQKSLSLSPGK
Assay [3] shares this target. In words: ELISA on Notch3-LD/Fc.
Assay [4] has as its target human Notch3 receptor, full-length (human) (UniProt Q9UM47). The experiment in a line: FACS on Sup-T1 cells naturally expressing Notch3.
The target in a further assay is Notch3-D2/Fc (human) (UniProt Q9UM47). The experiment in a line: ELISA on Notch3-domain/Fc fusion proteins.
The target of a further assay is Notch3-D1/Fc (human) (UniProt Q9UM47). In words: ELISA on Notch3-domain/Fc fusion proteins.

Chain of human Notch3 receptor, full-length (human) (Q9UM47 40-2321 A2223V limits assumed): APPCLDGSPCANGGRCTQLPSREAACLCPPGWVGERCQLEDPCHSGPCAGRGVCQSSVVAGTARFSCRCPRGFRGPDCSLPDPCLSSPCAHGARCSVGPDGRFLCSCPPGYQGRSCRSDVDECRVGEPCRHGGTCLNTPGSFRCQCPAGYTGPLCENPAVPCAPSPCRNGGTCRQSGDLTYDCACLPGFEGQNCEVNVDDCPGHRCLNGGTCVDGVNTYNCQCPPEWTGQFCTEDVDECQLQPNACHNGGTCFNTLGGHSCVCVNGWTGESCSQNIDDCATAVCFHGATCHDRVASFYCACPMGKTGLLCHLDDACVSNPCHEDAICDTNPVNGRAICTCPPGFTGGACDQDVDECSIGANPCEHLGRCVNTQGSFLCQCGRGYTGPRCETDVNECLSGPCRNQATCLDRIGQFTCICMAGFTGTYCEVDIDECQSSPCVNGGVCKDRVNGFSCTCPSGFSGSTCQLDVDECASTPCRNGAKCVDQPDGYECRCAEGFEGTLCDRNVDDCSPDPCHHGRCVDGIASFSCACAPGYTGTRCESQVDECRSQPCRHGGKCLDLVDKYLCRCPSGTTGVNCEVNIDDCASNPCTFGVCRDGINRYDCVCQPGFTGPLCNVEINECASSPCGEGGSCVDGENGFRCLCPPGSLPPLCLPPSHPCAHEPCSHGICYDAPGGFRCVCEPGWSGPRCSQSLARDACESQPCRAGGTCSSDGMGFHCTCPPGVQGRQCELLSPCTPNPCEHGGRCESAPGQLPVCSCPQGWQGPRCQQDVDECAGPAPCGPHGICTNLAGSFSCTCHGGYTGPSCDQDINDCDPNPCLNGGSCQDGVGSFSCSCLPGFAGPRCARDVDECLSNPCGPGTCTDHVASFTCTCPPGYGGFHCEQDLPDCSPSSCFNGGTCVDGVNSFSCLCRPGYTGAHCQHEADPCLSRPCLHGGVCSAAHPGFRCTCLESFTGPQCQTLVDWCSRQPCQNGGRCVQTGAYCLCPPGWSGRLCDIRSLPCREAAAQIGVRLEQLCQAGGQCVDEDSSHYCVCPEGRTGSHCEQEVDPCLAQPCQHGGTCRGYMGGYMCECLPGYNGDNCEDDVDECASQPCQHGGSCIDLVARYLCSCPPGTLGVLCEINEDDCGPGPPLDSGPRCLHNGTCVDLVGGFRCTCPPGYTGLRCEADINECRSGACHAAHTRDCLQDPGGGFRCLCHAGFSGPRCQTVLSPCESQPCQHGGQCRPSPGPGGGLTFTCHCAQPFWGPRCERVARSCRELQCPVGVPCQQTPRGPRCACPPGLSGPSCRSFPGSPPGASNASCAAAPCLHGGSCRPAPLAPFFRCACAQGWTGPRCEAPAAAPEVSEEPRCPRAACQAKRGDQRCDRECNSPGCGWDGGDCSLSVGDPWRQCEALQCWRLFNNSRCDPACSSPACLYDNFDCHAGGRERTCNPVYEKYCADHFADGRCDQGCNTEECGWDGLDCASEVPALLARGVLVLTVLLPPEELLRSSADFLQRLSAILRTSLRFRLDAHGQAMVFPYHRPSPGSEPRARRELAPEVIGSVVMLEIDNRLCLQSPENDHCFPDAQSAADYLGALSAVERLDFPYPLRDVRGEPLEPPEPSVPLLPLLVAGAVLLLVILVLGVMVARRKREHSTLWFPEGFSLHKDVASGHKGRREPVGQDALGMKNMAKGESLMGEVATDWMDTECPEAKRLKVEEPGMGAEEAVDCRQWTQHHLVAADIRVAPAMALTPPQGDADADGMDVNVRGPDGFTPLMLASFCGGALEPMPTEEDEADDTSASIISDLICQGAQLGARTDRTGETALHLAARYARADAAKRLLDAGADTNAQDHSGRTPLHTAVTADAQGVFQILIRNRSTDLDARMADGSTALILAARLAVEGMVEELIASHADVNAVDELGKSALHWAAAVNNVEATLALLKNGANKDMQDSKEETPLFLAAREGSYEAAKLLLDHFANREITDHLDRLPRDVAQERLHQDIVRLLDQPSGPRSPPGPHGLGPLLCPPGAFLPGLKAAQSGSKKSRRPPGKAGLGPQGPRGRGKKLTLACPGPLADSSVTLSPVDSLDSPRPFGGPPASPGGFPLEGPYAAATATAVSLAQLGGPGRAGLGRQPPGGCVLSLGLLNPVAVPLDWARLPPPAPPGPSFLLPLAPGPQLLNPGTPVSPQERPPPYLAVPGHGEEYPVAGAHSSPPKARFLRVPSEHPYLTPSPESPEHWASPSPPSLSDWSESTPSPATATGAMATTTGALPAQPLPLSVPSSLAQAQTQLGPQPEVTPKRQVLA

For the molecule Control IgG1 MAb (antibody), the mean fluorescent intensity in assay [1] is 24.2 MFI; in assay [4], 24.5 MFI. The ELISA OD reading (mean) in assay [2] is 0.019 OD (450 nm); in assay [3] it was 0.063 OD.

B1: anti-Notch3 monoclonal antibody MAb 256A-13 (antibody, IgG1, V domains shown)
VH: SQVQLQQSGAELAKPGTSVKMACKASGYTFTTHWMNWVKQRPGQGLEWIGTINPSNDFTDCNQKFKDKAILTADKSSSTAYMQLSSLTSEDSAIYYCASGLTARAWFAYWGQGTLVTVSAA
VL: RATISCRASQSVTTSNYSYMHWFQQKPGQPPKLLIKYASNLDSGVPARFSGSGSGTDFTLNIHPVEEEDTATFYCQHSWEIPYTFGGGTNLEIKRADAAPTV
On to B1, for which the ELISA OD reading in the assay with Notch3-D2/Fc (human) and in the assay with Notch3-D1/Fc (human) was 0.015 OD throughout.
